Tests used:
Experiment in all cases: fluorescence polarisation; increasing amounts of SIN1 protein titrated to 1 µM mGppNHp-bound GTPase; 21°C; 30 mM Tris/HCl pH 7.5, 150 mM NaCl, 5 mM MgCl2, 3 mM dithiothreitol; quadratic ligand binding equation
Conditions in all cases: both partners purified
KRAS4A [1] = target: T1, KRAS4A ( (the printed accession is a …, UniProt P01116-1 1-189))
T1 construct: KRAS isoform 4A, full length gene; Loaded with mant-GppNHp for fluorescence polarisation; A farnesylated KRAS4A from insect cells was used only in liposome flotation

RIT1 [2] = target: T2, RIT1 ( (the printed accession is a …, UniProt Q92963 1-219))
T2 construct: RIT1, full length gene; Loaded with mant-GppNHp for fluorescence polarisation
T2 sequence (Q92963 whole entry): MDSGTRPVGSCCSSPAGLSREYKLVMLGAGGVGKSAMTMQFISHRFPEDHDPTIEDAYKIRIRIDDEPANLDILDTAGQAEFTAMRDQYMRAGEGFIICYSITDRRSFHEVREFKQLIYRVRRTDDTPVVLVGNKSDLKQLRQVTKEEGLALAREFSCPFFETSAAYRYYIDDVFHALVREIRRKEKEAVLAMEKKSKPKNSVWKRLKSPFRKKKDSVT

KRAS4A [3] = target: T1, KRAS4A; remark: listed apart in the source
TC21 = target: T3, TC21 ( (the printed accession is a …, UniProt P62070 1-204))
T3 construct: RRAS2 (TC21), full length gene; Loaded with mant-GppNHp for fluorescence polarisation; also called RRAS2
T3 sequence (looked up): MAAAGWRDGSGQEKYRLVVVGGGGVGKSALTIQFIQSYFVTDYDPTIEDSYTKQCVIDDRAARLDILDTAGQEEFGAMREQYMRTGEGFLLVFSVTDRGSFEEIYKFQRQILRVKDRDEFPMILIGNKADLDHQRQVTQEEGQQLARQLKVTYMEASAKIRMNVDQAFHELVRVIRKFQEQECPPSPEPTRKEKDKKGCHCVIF

NRAS [4] = target: T4, NRAS ( (the printed accession is a …, UniProt P01111 1-189))
T4 construct: NRAS, full length gene; Loaded with mant-GppNHp for fluorescence polarisation
T4 sequence (P01111 whole entry): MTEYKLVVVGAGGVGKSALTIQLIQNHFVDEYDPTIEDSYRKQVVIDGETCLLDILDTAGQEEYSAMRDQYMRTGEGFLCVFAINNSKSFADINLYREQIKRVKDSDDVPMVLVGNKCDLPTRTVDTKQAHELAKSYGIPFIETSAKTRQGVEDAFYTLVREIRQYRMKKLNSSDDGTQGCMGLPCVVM

RAP2A = target: T5, RAP2A ( (the printed accession is a …, UniProt P10114 1-183))
T5 construct: RAP2A, full length gene; Loaded with mant-GppNHp for fluorescence polarisation
T5 sequence (looked up): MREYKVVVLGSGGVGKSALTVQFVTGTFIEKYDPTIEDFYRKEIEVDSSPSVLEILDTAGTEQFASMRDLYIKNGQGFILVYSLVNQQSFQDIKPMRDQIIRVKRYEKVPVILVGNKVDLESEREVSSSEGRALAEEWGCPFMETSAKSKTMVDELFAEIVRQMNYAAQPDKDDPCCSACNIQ

ERAS = target: T6, ERAS ( (the printed accession is a …, UniProt Q7Z444 1-233))
T6 construct: ERAS, full length gene; Loaded with mant-GppNHp for fluorescence polarisation
T6 sequence (looked up): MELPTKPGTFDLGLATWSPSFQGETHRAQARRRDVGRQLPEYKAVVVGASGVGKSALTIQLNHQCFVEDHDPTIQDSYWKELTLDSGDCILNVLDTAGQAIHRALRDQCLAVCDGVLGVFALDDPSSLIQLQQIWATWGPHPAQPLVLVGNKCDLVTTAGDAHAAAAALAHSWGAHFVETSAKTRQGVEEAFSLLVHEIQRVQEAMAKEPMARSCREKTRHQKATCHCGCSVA

RALA = target: T7, RALA ( (the printed accession is a …, UniProt P11233 1-206))
T7 construct: RALA, full length gene; Loaded with mant-GppNHp for fluorescence polarisation
T7 sequence (looked up): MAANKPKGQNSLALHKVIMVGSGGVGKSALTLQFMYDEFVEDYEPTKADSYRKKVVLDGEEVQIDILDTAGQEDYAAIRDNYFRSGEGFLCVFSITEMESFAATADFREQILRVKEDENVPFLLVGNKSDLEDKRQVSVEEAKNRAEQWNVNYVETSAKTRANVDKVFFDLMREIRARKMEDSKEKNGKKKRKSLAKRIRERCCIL

RHEB = target: T8, RHEB ( (the printed accession is a …, UniProt Q15382 1-184))
T8 construct: RHEB, full length gene; Loaded with mant-GppNHp for fluorescence polarisation
T8 sequence (Q15382 whole entry): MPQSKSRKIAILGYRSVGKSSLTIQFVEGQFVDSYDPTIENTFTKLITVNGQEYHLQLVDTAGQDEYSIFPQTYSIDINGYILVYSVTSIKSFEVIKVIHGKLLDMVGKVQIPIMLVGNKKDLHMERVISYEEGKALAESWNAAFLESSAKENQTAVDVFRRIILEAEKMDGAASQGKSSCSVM

RIT1 [5] = target: T2, RIT1; remark: listed apart in the source
RRAS = target: T9, RRAS ( (the printed accession is a …, UniProt P10301 1-218))
T9 construct: RRAS (RRAS1), full length gene; Loaded with mant-GppNHp for fluorescence polarisation; also called RRAS1
T9 sequence (looked up): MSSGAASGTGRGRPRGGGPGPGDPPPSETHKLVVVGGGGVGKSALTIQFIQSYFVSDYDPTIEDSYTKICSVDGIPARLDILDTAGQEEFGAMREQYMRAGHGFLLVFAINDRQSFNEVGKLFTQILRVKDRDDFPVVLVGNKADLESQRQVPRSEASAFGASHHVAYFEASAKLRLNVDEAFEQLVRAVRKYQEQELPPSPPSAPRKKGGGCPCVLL

KRAS4B = target: T10, KRAS4B ( (the printed accession is a …, UniProt P01116-2 1-188))
T10 construct: KRAS isoform 4B, full length gene; Loaded with mant-GppNHp for fluorescence polarisation

RHOA = target: T11, RHOA ( (the printed accession is a …, UniProt P61586 1-193))
T11 construct: RHOA, full length gene; Loaded with mant-GppNHp for fluorescence polarisation
T11 sequence (P61586 whole entry): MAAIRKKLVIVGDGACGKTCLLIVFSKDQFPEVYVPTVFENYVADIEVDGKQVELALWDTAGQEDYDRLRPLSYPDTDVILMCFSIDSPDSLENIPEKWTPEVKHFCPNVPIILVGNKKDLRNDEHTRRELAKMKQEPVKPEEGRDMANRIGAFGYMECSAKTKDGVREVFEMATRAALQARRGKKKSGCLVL

KRAS4A [6] = target: T1, KRAS4A; remark: listed apart in the source
NRAS [7] = target: T4, NRAS; remark: listed apart in the source
HRAS = target: T12, HRAS ( (the printed accession is a …, UniProt P01112 1-189))
T12 construct: HRAS, full length gene; Loaded with mant-GppNHp (or mant-GDP) for fluorescence polarisation; also called HRAS•mGppNHp; HRAS•mGDP
T12 sequence (P01112 whole entry): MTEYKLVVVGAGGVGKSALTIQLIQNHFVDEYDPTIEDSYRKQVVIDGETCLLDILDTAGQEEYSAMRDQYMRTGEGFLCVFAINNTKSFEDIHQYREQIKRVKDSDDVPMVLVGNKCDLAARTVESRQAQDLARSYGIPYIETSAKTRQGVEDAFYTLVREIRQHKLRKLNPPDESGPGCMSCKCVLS

B1: SIN1-RBD (domain or fragment, UniProt Q9BPZ7 266-373, looked up)
chain: EKYSSPGLTSKESLFVRINAAHGFSLIQVDNTKVTMKEILLKAVKRRKGSQKVSGPQYRLEKQSEPNVAVDLDSTLESQSAWEFCLVRENSSRADGVFEEDSQIDIAT
notes: numbers count on isoform 1 (full length); As used in fluorescence polarisation; Limits: 266-373 in the methods, 279-353 in the results; also called SIN1-RBD^WT
Kd (KRAS4A [1]): 35 µM | Kd (RIT1 [2]): 112 µM | Kd (KRAS4A [3]): 34 µM | Kd (TC21): 878 µM | Kd (NRAS [4]): 31 µM | Kd (RAP2A): 483 µM | Kd (ERAS): 171 µM | Kd (RALA): 331 µM | Kd (RHEB): 358 µM | Kd (RIT1 [5]): 123 µM | Kd (RRAS): 123 µM | Kd (KRAS4B): 33 µM | Kd (RHOA): 535 µM

B2: SIN1-RBD^K307D (domain or fragment, UniProt Q9BPZ7 266-373, looked up)
chain: EKYSSPGLTSKESLFVRINAAHGFSLIQVDNTKVTMKEILLDAVKRRKGSQKVSGPQYRLEKQSEPNVAVDLDSTLESQSAWEFCLVRENSSRADGVFEEDSQIDIAT
notes: numbers count on isoform 1 (full length); also called SIN-RBD^K307D; SIN1^K307D
Kd (KRAS4A [6]): 256 µM | Kd (NRAS [7]): 166 µM | Kd (HRAS): 324 µM

B3: SIN1-RBD^FSL289-291REE (domain or fragment, UniProt Q9BPZ7 266-373, looked up)
chain: EKYSSPGLTSKESLFVRINAAHGREEIQVDNTKVTMKEILLKAVKRRKGSQKVSGPQYRLEKQSEPNVAVDLDSTLESQSAWEFCLVRENSSRADGVFEEDSQIDIAT
notes: numbers count on isoform 1 (full length); also called SIN-RBD^FSL289-291REE; SIN1^FSL289-291REE
Kd (KRAS4A [6]): 654 µM

B4: SIN1-RBD^RR311-312EE (domain or fragment, UniProt Q9BPZ7 266-373, looked up)
chain: EKYSSPGLTSKESLFVRINAAHGFSLIQVDNTKVTMKEILLKAVKEEKGSQKVSGPQYRLEKQSEPNVAVDLDSTLESQSAWEFCLVRENSSRADGVFEEDSQIDIAT
notes: numbers count on isoform 1 (full length); also called SIN-RBD^RR311,312EE; SIN1^RR311-312EE
Kd (KRAS4A [6]): 952 µM | Kd (HRAS): 461 µM
